Experimental data reported in paper PMC8095197 (bioRxiv, 2021).

Target: SARS-CoV-2 spike (SARS-CoV-2, reference (Wuhan-Hu-1) …, UniProt P0DTC2)
Experiment: ELISA

B1: DH1047 IgG (antibody, V domains shown)
VH: QVQLVQSGAEVKKPGASVQVSCQASANTFTNHYIHWVRQAPGQGLEWMGIIYPTGGNTIYAQGFQGRVTMTRDTSLNTIYLELSSLRSEDTAVYYCARDVRVDDSWSGYDLLSGGTYFDYWGQGTLVTVSS
VL: not shown
B1: binds.
